{"source": "paper PMC8835902", "about": "“DNA Polymerase-Parental DNA Interaction Is Essential for Helicase-Polymerase Coupling during Bacteriophage T7 DNA Replication”", "binders": {"B1": {"name": "Linear template-58nt (dsDNA)", "DNA 1": "GGATTATTTACATTGGCAGATTCACC", "DNA 2": "TTATTAGTTATGATATTCATGTATAGTTATATGGTGAATCTGCCAATGTAAATAATCC"}, "B2": {"name": "Fork template 0gap (mixed)", "DNA 1": "GGATTATTTACATTGGCAGATTCACC", "DNA 2": "B1 DNA 2", "DNA 3": "TATTCATGTATAGTTATGTAGAGACCGAGATCCGCGCTGCCAGTCGGCAGAGCC"}, "B3": {"name": "Fork template 2gap (mixed)", "DNA 1": "GGATTATTTACATTGGCAGATTCACC", "DNA 2": "B1 DNA 2", "DNA 3": "TATTCATGTATAGTTATGTAGAGTTCCGAGATCCGCGCTGCCAGTCGGCAGAGCC"}, "B4": {"name": "Fork template 1gap (mixed)", "DNA 1": "GGATTATTTACATTGGCAGATTCACC", "DNA 2": "B1 DNA 2", "DNA 3": "B2 DNA 3 with A24T"}}, "key": {"WAgp5;thioredoxin (trx) [1]": {"target": "T1, WAgp5;thioredoxin (trx) (bacteriophage T7;Escherichia coli?, UniProt P00581;P0AA25 1-704;1-109, D5A;E7A;W579A|)", "test": "EMSA; similar to WTgp5; 20 mM Hepes pH 7.5, 1 mM EDTA, 100 mM KCl, 0.1 mM bME, 5% glycerol, 0.10 mg/mL BSA, 10 nM DNA, 25 C (30 min; 15 min + 15 min for supershift)", "details": "protein: recombinant;recombinant; tags: ;; copies: 1;1; label: 5' Cy5 on primer; primer-template, 26 bp duplex, 32 nt 5' template overhang"}, "[2]": {"target": "WTgp5 (T7 DNA polymerase, exo-);thioredoxin (trx) (bacteriophage T7;Escherichia coli?, UniProt P00581;P0AA25 1-704;1-109, D5A;E7A|)", "test": "EMSA; 20 mM Hepes pH 7.5, 1 mM EDTA, 100 mM KCl, 0.1 mM bME, 5% glycerol, 0.10 mg/mL BSA, 10 nM DNA, 25 C (30 min; 15 min + 15 min for supershift)", "details": "protein: recombinant;recombinant, tags: ;, copies: 1;1, label: 5' Cy5 on primer"}, "WAgp5;thioredoxin (trx) [3]": {"target": "T1, WAgp5;thioredoxin (trx)", "test": "EMSA; 1 and 0 gap affinities similar; 20 mM Hepes pH 7.5, 1 mM EDTA, 100 mM KCl, 0.1 mM bME, 5% glycerol, 0.10 mg/mL BSA, 10 nM DNA, 25 C (30 min; 15 min + 15 min for supershift)", "details": "protein: recombinant;recombinant, tags: ;, copies: 1;1, label: 5' Cy5 on primer"}, "[4]": {"target": "EQgp4 (T7 helicase);K3Dgp5;thioredoxin (trx) (bacteriophage T7;bacteriophage …, UniProt P03692;P00581;P0AA25 1-566;1-704;1-109, E343Q|D5A;E7A;K545D;K549D;K553D|)", "test": "EMSA; K3Dgp5-trx stimulates EQgp4 binding; 20 mM Hepes pH 7.5, 1 mM EDTA, 100 mM KCl, 0.1 mM bME, 5% glycerol, 0.10 mg/mL BSA, 10 nM DNA, 25 C (30 min; 15 min + 15 min for supershift)", "details": "protein: recombinant;recombinant;recombinant; tags: His tag removed (PreScission);;; chain copies: 6;1;1; label: 5' Cy5 on primer; fork 1:2 2:3, 2 nt ssDNA gap between primer end and fork"}, "EQgp4deltaC": {"target": "EQgp4deltaC (bacteriophage T7, UniProt P03692 1-549, E343Q)", "test": "EMSA; 20 mM Hepes pH 7.5, 1 mM EDTA, 100 mM KCl, 0.1 mM bME, 5% glycerol, 0.10 mg/mL BSA, 10 nM DNA, 25 C (30 min; 15 min + 15 min for supershift)", "details": "protein: recombinant; tags: His tag removed (PreScission); chain copies: 6; label: 5' Cy5 on primer; fork 1:2 2:3, 2 nt ssDNA gap between primer end and fork"}, "EQgp4 (T7 helicase)": {"target": "EQgp4 (T7 helicase) (bacteriophage T7, UniProt P03692 1-566, E343Q)", "test": "EMSA; dTTP; 20 mM Hepes pH 7.5, 1 mM EDTA, 100 mM KCl, 0.1 mM bME, 5% glycerol, 0.10 mg/mL BSA, 10 nM DNA, 25 C (30 min; 15 min + 15 min for supershift)", "details": "protein: recombinant; tags: His tag removed (PreScission); chain copies: 6; label: 5' Cy5 on primer; fork 1:2 2:3, 2 nt ssDNA gap between primer end and fork"}, "[5]": {"target": "EQgp4 (T7 helicase);WTgp5 (T7 DNA polymerase, exo-);thioredoxin (trx) (bacteriophage T7;bacteriophage …, UniProt P03692;P00581;P0AA25 1-566;1-704;1-109, E343Q|D5A;E7A|)", "test": "EMSA; EQgp4 titrated onto DNA pre-bound to WTgp5-trx (60-100 nM); 20 mM Hepes pH 7.5, 1 mM EDTA, 100 mM KCl, 0.1 mM bME, 5% glycerol, 0.10 mg/mL BSA, 10 nM DNA, 25 C (30 min; 15 min + 15 min for supershift)", "details": "protein: recombinant;recombinant;recombinant; tags: His tag removed (PreScission);;; chain copies: 6;1;1; label: 5' Cy5 on primer; fork 1:2 2:3, 2 nt ssDNA gap between primer end and fork"}}, "note": "Positions count from the first letter of the chain named.", "data": [{"binder": "B1", "values": [{"measurement": "binding result", "setting": "WAgp5;thioredoxin (trx) [1]", "result": "binds"}, {"measurement": "Kd", "setting": "[2]; primer-template, 26 bp duplex, 32 nt 5' template overhang", "result": 53, "unit": "nM"}]}, {"binder": "B2", "values": [{"measurement": "binding result", "setting": "WAgp5;thioredoxin (trx) [3]; fork 1:2 2:3, no gap", "result": "binds"}, {"measurement": "Kd", "setting": "[2]; fork 1:2 2:3, no gap", "result": 110, "unit": "nM"}]}, {"binder": "B3", "values": [{"measurement": "binding result", "setting": "[4]", "result": "binds"}, {"measurement": "Kd", "setting": "[2]; fork 1:2 2:3, 2 nt ssDNA gap between primer end and fork", "result": 36, "unit": "nM"}, {"measurement": "Kd", "setting": "EQgp4deltaC", "result": 30, "unit": "nM"}, {"measurement": "Kd", "setting": "EQgp4 (T7 helicase)", "result": 24, "unit": "nM"}, {"measurement": "Kd", "setting": "[5]", "result": 8, "unit": "nM"}]}, {"binder": "B4", "values": [{"measurement": "binding result", "setting": "WAgp5;thioredoxin (trx) [3]; fork 1:2 2:3, 1 nt ssDNA gap", "result": "binds"}, {"measurement": "Kd", "setting": "[2]; fork 1:2 2:3, 1 nt ssDNA gap", "result": 63, "unit": "nM"}]}]}
